This note sets out measurements from patent US20190276526A1 (AbbVie / Abbott, published 2019).

One test concerns the target T1, Rat RGMa-His (rat) (UniProt D4A188).
T1 sequence: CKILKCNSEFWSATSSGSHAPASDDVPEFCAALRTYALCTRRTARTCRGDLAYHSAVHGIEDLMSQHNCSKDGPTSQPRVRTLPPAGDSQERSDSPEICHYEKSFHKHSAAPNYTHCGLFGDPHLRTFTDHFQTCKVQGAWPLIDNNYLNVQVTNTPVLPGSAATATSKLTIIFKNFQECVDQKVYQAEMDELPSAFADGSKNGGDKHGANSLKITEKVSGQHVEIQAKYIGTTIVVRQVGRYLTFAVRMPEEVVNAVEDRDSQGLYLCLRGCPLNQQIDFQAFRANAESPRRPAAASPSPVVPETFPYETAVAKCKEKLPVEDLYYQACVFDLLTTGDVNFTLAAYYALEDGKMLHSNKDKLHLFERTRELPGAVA
Kind of test: BIAcore.

A further test addresses T2, hRGMa-Fc (human, UniProt Q96B86 47-422, limits assumed, biotinylated in the neogenin ELISA and the MSD assay).
T2 construct: also called biot-hRGMa-Fc; biotinylated hRGMa-Fc; not shown: Fc part
T2 sequence: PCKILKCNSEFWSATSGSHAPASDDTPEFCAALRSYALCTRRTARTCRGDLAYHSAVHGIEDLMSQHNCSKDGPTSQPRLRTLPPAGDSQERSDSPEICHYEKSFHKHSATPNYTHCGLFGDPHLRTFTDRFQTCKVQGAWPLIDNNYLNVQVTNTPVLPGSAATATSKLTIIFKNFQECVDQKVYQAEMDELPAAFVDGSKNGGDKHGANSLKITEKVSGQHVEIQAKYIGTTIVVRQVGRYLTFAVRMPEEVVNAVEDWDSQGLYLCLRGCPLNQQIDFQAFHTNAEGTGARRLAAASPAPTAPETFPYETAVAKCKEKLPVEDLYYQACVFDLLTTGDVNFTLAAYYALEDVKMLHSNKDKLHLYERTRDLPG
Kind of test: HCS (high content analysis) live cell binding inhibition assay: Fc-tagged RGMa complexed with Cy3-labeled anti-Fc antibody, preincubated with the antibody, then added to cells for 30 min at 37 C; blocked: RGMa-Fc binding to SH-SY5Y cells; n=2. The protocol:
FIGS. 13A-F and 14A-H illustrate the neutralizing effects of the specified antibodies on RGMa binding to neuronal cells using a live cell binding assay on SH-SY5Y cells and rat hippocampal primary neurons. Fc-tagged RGMa and Cy3-labeled anti-Fc antibodies are complexed at 4° C. for 60 minutes, followed by an incubation of the complex with a blocking antibody at room temperature for 10 minutes. The RGMa-Cy3 +antibody complex is then added to cells together with Hoechsts 33342 for 30 minutes at 37° C. to allow binding onto the cells. The cell are then washed twice in culture medium and fixed with PFH. Cell imaging is performed with the BD Pathway and images analyzed with the Definiens Architect software.

B1: AE12-1-V (antibody, V domains shown)
VH: EVQLVQSGAEVKKPGASVKVSCKASGYTFTSHGISWVRQAPGQGLDWMGWISPYSGNTNYAQKLQGRVTMTTDTSTSTAYMELSSLRSEDTAVYYCARVGSGPYYYMDVWGQGTLVTVSS
VL: QSALTQPRSVSGSPGQSVTISCTGTSSSVGDSIYVSWYQQHPGKAPKLMLYDVTKRPSGVPDRFSGSKSGNTASLTISGLQAEDEADYYCVSYAGTDTLFGGGTKVTVL
B1 displayed an on-rate (kon) with Rat RGMa-His (rat) of 22000 M⁻¹ s⁻¹.

B2: AE12-6 (antibody, V domains shown)
VH: EVQLVQSGAEVKKPGASVKVSCKASGYIFTNYDIAWVRQAPGQGLEWMGWMNPDSGNTGFVQKFKGRVTATSNTDITTAYMELSSLTSEDTAVYYCARDRFGSGYDLDHWGQGTLVTVSS
VL: SYELTQPPSVSVAPGQTARITCGGNNIGSKSVHWYQQKPGQAPVLVVYDDSDRPSGIPERFSGSNSGNTATLTISRVEAGDEADYYCQVWGSSSDHYVFGTGTKVTVL
notes: lambda light chain
With B2, the “IC50 (read off the curve)” value with hRGMa-Fc is about 10 nM.

Usually kon stands for the second-order rate constant of association. Low readings indicate slow association, high ones fast association.
